# From US20190085039A1 (OSAKA UNIVERSITY, published 2019)
# Biological target: the molecule itself
# Test: size exclusion gel filtration chromatography (Superdex 200 10/30, 20 mM HEPES pH 7.4, 150 mM NaCl); no self-association, elutes as a monomer
# Method: The solvent is 20 mM HEPES solution of pH 7.4 containing 150 mM NaCl. The larger the molecular weight/molecular volume, the faster the flow in the column. Therefore, peaks appear on the left side in the figure. The spectra indicated with dotted lines in FIG. 1 show the absorptions of 10 μM DsRed (tetramer), tdTomato (dimer), and mCherry (monomer) in order from the left. […] Since the peak position of mfGFP is almost the same as that of mCherry, it can be said that
protein,measurement,value
"monomeric green-yellow fluorescent protein mfGFP (other, It was purified with an N-terminal polyhistidine tag; not shown: N-terminal polyhistidine tag from the bacterial expression vector pRSETB) MVSKGEEASGRALFQYPMTSKIELNGEINGKKFKVAGEGFTPSSGRFNMHAYCTTGDLPMSWVVIASPLQYGFHMFAHYPEDITHFFQECFPGSYTLDRTLRMEGDGTLTTHHEYSLEDGCVTSKTTLNASGFDPKGATMTKSFVKQLPNEVKITPHGPNGIRLTSTVLYLKEDGTIQIGTQDCIVTPVGGRKVTQPKAHFLHTQIIQKKDPNDTRDHIVQTELAVAGNLWHGMDELYK",binding result,no binding (tested: 10 µM)
